# T1: chymase (Homo sapiens, UniProt P23946 P23946:22-247)
# T1 sequence: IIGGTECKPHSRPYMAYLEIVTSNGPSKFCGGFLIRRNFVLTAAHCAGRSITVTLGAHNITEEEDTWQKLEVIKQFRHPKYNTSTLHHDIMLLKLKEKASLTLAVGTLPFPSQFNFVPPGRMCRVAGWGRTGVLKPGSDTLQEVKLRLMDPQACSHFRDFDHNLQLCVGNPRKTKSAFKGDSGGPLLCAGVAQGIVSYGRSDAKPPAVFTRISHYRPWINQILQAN
# B1: 56(44) (ssRNA)
# RNA: GGGUUAGAUAGAGUUAAAAACCC
# modifications: 2'-F U and C; 2'-OMe 1-3,7,8,10,13,16-20; 5' peptide 2 (Cys-Phe, disulfide); 3' idT
# B2: 56(43) (ssRNA)
# RNA: GGGUUAGAUAGAGUUAAAAACCC
# modifications: 2'-F U and C; 2'-OMe 1-3,7,8,10,13,16-20; 5' peptide 1 (Phe-Cys, disulfide); 3' idT
# Columns and labels:
# chymase [1] = molecular target: T1, chymase; assay: inhibition; angiotensin I; recombinant 0.326; details: tags: human skin mast cell, Calbiochem
# Experimental: (§1) The total volume of solution for an enzyme reaction in the assay was set to 50 μL, and the reaction was performed in solution C buffer. First, 0.3-0.75 ng of chymase (recombinant, (manufactured by SIGMA) or native (manufactured by Calbiochem)) was diluted with solution C to give 5 μL thereof. Here, the recombinant is chymase expressed by yeast, and the native is chymase purified from human skin mast cell. The nucleic acid was serially diluted with solution C at a concentration of 0.0027-2 μM to give 25 μL thereof. The chymase solution (5 μL) and the nucleic acid solution (25 μL) were mixed, and the mixture was incubated at 37° C. for 5 min. […] The whole mixture was centrifuged at 4° C., 14000 rpm for 10 min, and the supernatant (30 μL) was used for the next fluorescence induction reaction.
# (§2) The above-mentioned supernatant (30 μL) was added to a 96 well plate (black, manufactured by Costar), a solution (15 μL) of 2% o-phthalaldehyde (manufactured by SIGMA) in methanol and 0.3M NaOH solution (170 μL) were added to each well, and the mixture was incubated at room temperature for 10 min. […] The plate was set on a microplate reader SpectraMax190 (manufactured by Molecular device) and the fluorescence intensity was measured at an excitation wavelength of 355 nm and a fluorescence wavelength of 460 nm.
# chymase [2] = molecular target: T1, chymase; assay: inhibition; Suc-AAPF-MCA, 37 C, solution C; details: tags: recombinant, expressed in yeast, SIGMA
# Experimental: Here, Suc is a protecting succinyl group, and MCA is a 4-methylcoumaryl-7-amide group; upon cleavage of the C-terminal side of phenylalanine, AMC (7-amino-4-methyl-coumarine) is released. By detecting the fluorescence of this AMC, the enzyme activity of chymase can be determined. The assay was performed using a 96-well plate (F16 Black Maxisorp Fluoronunc, manufactured by Nunc), with a reaction mixture volume of 100 μL, in solution C as a buffer solution. First, each nucleic acid was serially diluted to 0.0027-2 μM concentrations in solution C to obtain 50 μL solutions. After 10 μL of the 1 mM substrate prepared in solution C was added thereto, the plate was set to the microplate reader SpectraMax190 (manufactured by Molecular Devices Corporation), and incubated at 37° C. for 5 minutes. Separately, 0.05 μg (or 0.005 μg) of chymase (recombinant, manufactured by SIGMA) was diluted in solution C to obtain a 40 μL chymase solution, and incubated at 37° C. for 5 minutes. The chymase solution was added to the mixture of the nucleic acid and substrate to initiate an enzyme reaction. The final chymase concentration in the reaction mixture was 16.7 nM (or 1.67 nM), the final substrate concentration being 100 μM. The plate containing the reaction mixture was set to the microplate reader SpectraMax190 (manufactured by Molecular Devices Corporation), and examined for time-dependent changes in the fluorescence intensity at 37° C. for 5 minutes (or 30 minutes) (excitation wavelength 380 nm, detection wavelength 460 nm). A linear approximation of the increase in the fluorescence of the AMC released from the substrate by chymase activity was generated, and its slope was taken as the initial velocity […]. For control, samples were treated and analyzed in the same manner in two cases: use of a 30N or 40N (a nucleotide of 30 or 40 consecutive bases represented by N; N is A, G, C or T) nucleic acid pool (negative control), and use of chymostatin, a known chymotrypsin-like serine protease inhibitor (positive control). Taking the initial reaction velocity without the nucleic acid and inhibitor (V_0) as a 100% enzyme activity, the inhibitory rate of each test substance was calculated using the following equation: […]
# The chymase inhibitory activity was measured in the same manner as in Example 3.
# chymase [3] = molecular target: T1, chymase; assay: inhibition; angiotensin I; recombinant 0.414; details: tags: human skin mast cell, Calbiochem
# Experimental: as §1, §2
# chymase [4] = molecular target: T1, chymase; assay: inhibition; angiotensin I; recombinant 0.426; details: tags: human skin mast cell, Calbiochem; label: 5' biotin
# chymase [5] = molecular target: T1, chymase; assay: inhibition; angiotensin I; recombinant 0.237; details: tags: human skin mast cell, Calbiochem
# chymase [6] = molecular target: T1, chymase; assay: inhibition; angiotensin I; recombinant 0.125; details: tags: human skin mast cell, Calbiochem
# Experimental: as §1, §2
# chymase [7] = molecular target: T1, chymase; assay: inhibition; angiotensin I; recombinant 0.687; details: tags: human skin mast cell, Calbiochem
# Experimental: as §1, §2
# chymase [8] = molecular target: T1, chymase; assay: inhibition; angiotensin I; recombinant 0.419; details: tags: human skin mast cell, Calbiochem; label: 3' biotin
# chymase [9] = molecular target: T1, chymase; assay: inhibition; angiotensin I; recombinant 0.161; details: tags: human skin mast cell, Calbiochem
# Experimental: as §1, §2
# chymase [10] = molecular target: T1, chymase; assay: inhibition; angiotensin I; recombinant 0.119; details: tags: human skin mast cell, Calbiochem
# Experimental: as §1, §2
# chymase [11] = molecular target: T1, chymase; assay: inhibition; angiotensin I; recombinant 0.153; details: tags: human skin mast cell, Calbiochem
# Experimental: as §1, §2
# chymase [12] = molecular target: T1, chymase; assay: inhibition; angiotensin I; recombinant 0.137; details: tags: human skin mast cell, Calbiochem
# chymase [13] = molecular target: T1, chymase; assay: inhibition; angiotensin I; recombinant 0.039; details: tags: human skin mast cell, Calbiochem
# chymase [14] = molecular target: T1, chymase; assay: inhibition; angiotensin I; recombinant 0.078; details: tags: human skin mast cell, Calbiochem
# Experimental: as §1, §2
# chymase [15] = molecular target: T1, chymase; assay: inhibition; angiotensin I; recombinant 0.239; details: tags: human skin mast cell, Calbiochem
# Experimental: as §1, §2
# chymase [16] = molecular target: T1, chymase; assay: inhibition; angiotensin I; recombinant 0.328; details: tags: human skin mast cell, Calbiochem
# Experimental: as §1, §2
# chymase [17] = molecular target: T1, chymase; assay: inhibition; angiotensin I; recombinant 0.377; details: tags: human skin mast cell, Calbiochem
# Experimental: as §1, §2
# chymase [18] = molecular target: T1, chymase; assay: inhibition; angiotensin I; recombinant 0.394; details: tags: human skin mast cell, Calbiochem
# Experimental: as §1, §2
# chymase [19] = molecular target: T1, chymase; assay: inhibition; angiotensin I; recombinant 0.089; details: tags: human skin mast cell, Calbiochem
# Experimental: as §1, §2
# chymase [20] = molecular target: T1, chymase; assay: inhibition; angiotensin I; recombinant 0.310; details: tags: human skin mast cell, Calbiochem; label: 5' biotin
# chymase [21] = molecular target: T1, chymase; assay: inhibition; angiotensin I; recombinant 0.080; details: tags: human skin mast cell, Calbiochem
# chymase [22] = molecular target: T1, chymase; assay: inhibition; angiotensin I; recombinant 0.289; details: tags: human skin mast cell, Calbiochem
# Experimental: as §1, §2
# chymase [23] = molecular target: T1, chymase; assay: inhibition; angiotensin I; recombinant 0.057; details: tags: human skin mast cell, Calbiochem
# chymase [24] = molecular target: T1, chymase; assay: inhibition; angiotensin I; recombinant 0.210; details: tags: human skin mast cell, Calbiochem
# Experimental: as §1, §2
# chymase [25] = molecular target: T1, chymase; assay: inhibition; angiotensin I; recombinant 0.085; details: tags: human skin mast cell, Calbiochem
binder,measurement,setting,value
"GGGUUAGAUAGAGUUAAAAACCC (ssRNA, 2'-F U and C; 2'-OMe 1-3,7,8,10,13,16-20; 5' and 3' idT) [56(26)]",IC50,chymase [1],743 nM
same,IC50,chymase [2],54 nM
B1,IC50,chymase [2],42 nM
same,IC50,chymase [3],643 nM
"GGGUUAGAUAGAGUUAAAAACCC (ssRNA, 2'-F U and C; 2'-OMe 1-3,7,8,10,13,16-20; 5' and 3' idT) [56(46)]",IC50,chymase [2]; label: 5' biotin,49 nM
same,IC50,chymase [4],742 nM
"GGGUUAGAUAGAGUUAAAAACCC (ssRNA, 2'-F U and C; 2'-OMe 1-3,7,8,10,13,16-20; PS 5-6) [56(22)]",IC50,chymase [2],52 nM
same,IC50,chymase [5],563 nM
"AAAGGGUUAGAUAGAGUUAAAAACCC (ssRNA, 2'-F U and C; 2'-OMe 1-6,10,11,13,16,19-23; PS 9-10; 5' and 3' idT) [69(1)]",IC50,chymase [6],480 nM
same,IC50,chymase [2],44 nM
"GGGUUAGAUAGAGUUAAAAACCC (ssRNA, 2'-F U and C; 2'-OMe 1-3,7,8,10,13,16-20; 5' cholesterol; 3' idT) [56(42)]",IC50,chymase [2],71 nM
same,IC50,chymase [7],601 nM
"GGGUUAGAUAGAGUUAAAAACCC (ssRNA, 2'-F U and C; 2'-OMe 1-3,7,8,10,13,16-20; 5' and 3' idT) [56(47)]",IC50,chymase [2]; label: 3' biotin,37 nM
same,IC50,chymase [8],542 nM
"GGGUUAGAUAGAGTUAAAAACCC (mixed, 2'-F U and C; 2'-OMe 1-3,7,8,10,13,16-20; DNA T14; 5' and 3' idT) [SEQ 71]",IC50,chymase [9],341 nM
"GGGUUAGAUAGAGUUAAAAACCC (ssRNA, 2'-F U and C; 2'-OMe 1-3,7,8,10,13,16-20; PS 6-7) [56(23)]",IC50,chymase [10],360 nM
same,IC50,chymase [2],32 nM
"GGGUUAGAUAGAGUUAAAAACCC (mixed, 2'-F U and C; 2'-OMe 1-3,7,10,13,16-20; DNA A8; 5' and 3' idT) [56(50)]",IC50,chymase [2],27 nM
same,IC50,chymase [11],325 nM
"GGGUUAGAUAGAGUUAAAAACCC (ssRNA, 2'-F U and C; 2'-OMe 1-3,7,8,10,13,16-20; PS 6-7; 5' and 3' idT) [56(28)]",IC50,chymase [2],44 nM
same,IC50,chymase [12],410 nM
"GGGUUAGAUAGAGUUAAAAACCC (ssRNA, 2'-F U and C; 2'-OMe 1-3,10,13,16-20; PS 6-7; 5' and 3' idT) [56(35)]",IC50,chymase [2],24 nM
same,IC50,chymase [13],120 nM
"GGGUUAGAUAGAGUUAAAAACCC (ssRNA, 2'-F U and C; 2'-OMe 1-3,10,13,16-20; 5' and 3' idT) [56(32)]",IC50,chymase [14],185 nM
"GGGTTAGAUAGAGUUAAAAACCC (mixed, 2'-F U and C; 2'-OMe 1-3,7,8,10,13,16-20; DNA T4,T5; 5' and 3' idT) [SEQ 70]",IC50,chymase [15],478 nM
B2,IC50,chymase [2],35 nM
same,IC50,chymase [16],591 nM
"GGGUUAGAUAGAGUUAAAAACCC (ssRNA, 2'-F U and C; 2'-OMe 1-3,7,8,10,13,16-20; 5' idT; 3' PEG 40 kDa) [56(45)]",IC50,chymase [17],303 nM
same,IC50,chymase [2],59 nM
"GGGUUAGAUAGAGUUAAAAACCC (mixed, 2'-F U; 2'-OMe 1-3,7,8,10,13,16-20; DNA C21-C23; 5' and 3' idT) [56(48)]",IC50,chymase [2],36 nM
same,IC50,chymase [18],621 nM
"GGGUUAGAUAGAGUUAAAAACCC (ssRNA, 2'-F U and C; 2'-OMe 1-3,7,10,13,16-20; 5' and 3' idT) [56(31)]",IC50,chymase [19],266 nM
"GGGUUAGAUAGAGUUAAAAACCC (mixed, 2'-F U and C; 2'-OMe 1-3,7,10,13,16-20; DNA A8; 5' and 3' idT) [56(51)]",IC50,chymase [2]; label: 5' biotin,29 nM
same,IC50,chymase [20],429 nM
"GGGUUAGAUAGAGUUAAAAACCC (ssRNA, 2'-F U and C; 2'-OMe 1-3,7,8,10,13,16-20; PS 5-6,6-7; 5' and 3' idT) [56(29)]",IC50,chymase [2],36 nM
same,IC50,chymase [21],366 nM
"AAAGGGUUAGAUAGAGUUAAAAACCC (ssRNA, 2'-F U and C; 2'-OMe 1-6,10,11,13,16,19-23; 5' and 3' idT) [69(2)]",IC50,chymase [22],752 nM
same,IC50,chymase [2],48 nM
"GGGUUAGAUAGAGUUAAAAACCC (ssRNA, 2'-F U and C; 2'-OMe 1-3,7,10,13,16-20; PS 6-7; 5' and 3' idT) [56(34)]",IC50,chymase [2],31 nM
same,IC50,chymase [23],162 nM
"GGGUUAGAUAGAGUUAAAAACCC (ssRNA, 2'-F U and C; 2'-OMe 1-3,8,10,13,16-20; 5' and 3' idT) [56(30)]",IC50,chymase [2],34 nM
same,IC50,chymase [24],521 nM
"GGGUUAGAUAGAGUUAAAAACCC (ssRNA, 2'-F U and C; 2'-OMe 1-3,8,10,13,16-20; PS 6-7; 5' and 3' idT) [56(33)]",IC50,chymase [2],35 nM
same,IC50,chymase [25],291 nM

# Reference: patent US9012420B2, “Aptamer for chymase, and use thereof” (Ribomic Inc., priority 2009, dated 2015)
